Test results reported in publication PMC4955526 (2017).
Read-outs that look alike come from different tables or passages of the source. Each block holds one binder with its values, some of them ahead of it.

B1: BMP-4 (protein)
chain: SPKHHSQRARKKNKNCRRHSLYVDFSDVGWNDWIVAPPGYQAFYCHGDCPFPLADHLNSTNHAIVQTLVNSVNSSIPKACCVPTELSAISMLYLDEYDKVVLKNYQEMVVEGCGCR

Legend:
[1] = target: T1, ALK3-Fc ECD (Homo sapiens, UniProt P36894); experiment: SPR
T1 chain: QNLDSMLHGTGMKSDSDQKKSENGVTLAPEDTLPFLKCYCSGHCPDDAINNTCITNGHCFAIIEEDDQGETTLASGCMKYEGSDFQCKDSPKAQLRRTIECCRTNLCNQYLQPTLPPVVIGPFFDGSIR

[2] = target: T2, BMPRII-Fc ECD (Homo sapiens, UniProt Q13873); experiment: SPR
T2 chain: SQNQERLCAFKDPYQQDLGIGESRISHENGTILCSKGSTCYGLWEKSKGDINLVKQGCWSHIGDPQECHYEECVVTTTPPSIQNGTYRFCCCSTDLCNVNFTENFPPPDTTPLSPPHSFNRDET

[3] = target: T3, Cerberus-Fc (Homo sapiens, UniProt O95813); experiment: SPR
T3 chain: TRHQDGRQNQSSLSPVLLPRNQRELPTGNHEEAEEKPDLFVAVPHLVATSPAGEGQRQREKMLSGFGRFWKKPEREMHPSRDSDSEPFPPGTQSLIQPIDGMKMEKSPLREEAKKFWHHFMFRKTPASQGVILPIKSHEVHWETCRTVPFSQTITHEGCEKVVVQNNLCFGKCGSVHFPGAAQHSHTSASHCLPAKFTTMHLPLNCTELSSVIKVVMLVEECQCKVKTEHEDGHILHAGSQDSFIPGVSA

[4] = target: T4, ActRIIA-Fc ECD (Homo sapiens, UniProt P27037); experiment: SPR
[5] = target: T3, Cerberus-Fc; experiment: SPR
[6] = target: T4, ActRIIA-Fc ECD; experiment: SPR; remark: listed apart in the source
[7] = target: B1; experiment: SPR competition vs ActRIIA-Fc
[8] = target: B1; experiment: SPR competition vs ALK3-Fc
[9] = target: B1; experiment: SPR competition vs Cerberus-Fc
[10] = target: B1; experiment: SPR competition vs ALK3-Fc
[11] = target: B1; experiment: SPR competition vs ActRIIA-Fc
[12] = target: B1; experiment: SPR competition vs ActRIIA-Fc
[13] = target: B1; experiment: SPR competition vs ALK3-Fc
[14] = target: B1; experiment: SPR competition vs Cerberus-Fc
[15] = target: B1; experiment: SPR competition vs ALK3-Fc
[16] = target: B1; experiment: SPR competition vs BMPRII-Fc
[17] = target: B1; experiment: SPR competition vs ActRIIA-Fc
[18] = target: B1; experiment: SPR competition vs Cerberus-Fc
[19] = target: B1; experiment: SPR competition vs Cerberus-Fc
[20] = target: B1; experiment: SPR competition vs BMPRII-Fc
[21] = target: B1; experiment: SPR competition vs BMPRII-Fc
[22] = target: B1; experiment: SPR competition vs BMPRII-Fc
[23] = target: B1; experiment: SPR competition vs ActRIIA-Fc

T4 sequence (P27037 20-135): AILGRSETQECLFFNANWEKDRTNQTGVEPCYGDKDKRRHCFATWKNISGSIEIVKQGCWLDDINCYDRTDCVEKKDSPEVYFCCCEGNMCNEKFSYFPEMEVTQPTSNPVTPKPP

Binder: B1
Kd [1]: 0.193 nM
Kd [2]: 8.13 nM
Kd [3]: 2.24 nM
Kd [4]: 3.26 nM
Kd [5]: 2.73 nM
Kd [6]: 2.85 nM

IC50 [7]: 56 nM
IC50 [8]: 245 nM
IC50 [9]: 56.7 nM
IC50 [10]: 134 nM
IC50 [11]: 305 nM
IC50 [12]: 266 nM
IC50 [13]: 289 nM
IC50 [14]: 46.6 nM
IC50 [15]: 303 nM
IC50 [16]: 153 nM
IC50 [17]: 239 nM
IC50 [18]: 57.6 nM
IC50 [19]: 99.7 nM
IC50 [20]: 132 nM
IC50 [21]: 166 nM
IC50 [22]: 138 nM
IC50 [23]: 58 nM
B2: Cerberus (protein)
chain: TRHQDGRQNQSSLSPVLLPRNQRELPTGNHEEAEEKPDLFVAVPHLVATSPAGEGQRQREKMLSGFGRFWKKPEREMHPSRDSDSEPFPPGTQSLIQPIDGMKMEKSPLREEAKKFWHHFMFRKTPASQGVILPIKSHEVHWETCRTVPFSQTITHEGCEKVVVQNNLCFGKCGSVHFPGAAQHSHTSASHCLPAKFTTMHLPLNCTELSSVIKVVMLVEECQCKVKTEHEDGHILHAGSQDSFIPGVSA
